Patent US20200095301A1 (published 2020)
Each block holds one molecule with its values, some of them ahead of it.

Assays:
[1] = molecular target: human IL-13Rα1 ectodomain, biotinylated (human) (UniProt P78552); test: SPR; equilibrium; settings: ligand
[2] = molecular target: human IL-13Rα1 ectodomain, biotinylated (human) (UniProt P78552); test: SPR; kinetic; settings: ligand
[3] = molecular target: T1, human IL-13Rα2, biotinylated (human, UniProt Q14627 27-343, biotinylated (site not stated)); test: SPR; kinetic
T1 chain: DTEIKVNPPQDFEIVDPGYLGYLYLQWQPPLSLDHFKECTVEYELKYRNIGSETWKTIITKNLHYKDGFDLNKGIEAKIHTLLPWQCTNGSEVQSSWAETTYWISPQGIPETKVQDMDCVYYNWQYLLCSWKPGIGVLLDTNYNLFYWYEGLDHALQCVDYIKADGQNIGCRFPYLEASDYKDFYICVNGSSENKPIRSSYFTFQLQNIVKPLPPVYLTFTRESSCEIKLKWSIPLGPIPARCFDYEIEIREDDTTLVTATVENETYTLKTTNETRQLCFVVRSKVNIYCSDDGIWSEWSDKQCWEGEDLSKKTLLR

Sequence of human IL-13Rα1 ectodomain, biotinylated (human) (P78552 other isoform, or with tags, fused parts or gaps): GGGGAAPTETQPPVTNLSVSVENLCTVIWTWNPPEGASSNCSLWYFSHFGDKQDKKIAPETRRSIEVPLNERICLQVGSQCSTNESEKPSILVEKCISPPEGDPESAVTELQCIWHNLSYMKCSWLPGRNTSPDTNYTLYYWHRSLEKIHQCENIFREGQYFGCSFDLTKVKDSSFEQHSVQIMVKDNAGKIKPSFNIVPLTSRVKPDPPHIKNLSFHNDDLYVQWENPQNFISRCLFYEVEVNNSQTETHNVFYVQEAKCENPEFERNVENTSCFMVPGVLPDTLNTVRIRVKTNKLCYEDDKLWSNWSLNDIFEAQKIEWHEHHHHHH

Kd [1]: 4100 nM
Molecule: IL-13 superkine D7 [L10A, V18F, R86K, D87K, K89R, L101I, K104R, R108K]

Kd [2]: 18 nM
Molecule: IL-13 variant B4 [R11S, V18I, R86K, D87G, T88S, K89M, L101Y, K104R, K105T]

Kd [3]: 0.003 nM
B1: IL-13 superkine D7 [L10A, V18F, R86K, D87K, K89R, L101I, K104R, R108K] (ligand)
chain: PGPVPPSTAARELIEELFNITQNQKAPLCNGSMVWSINLTAGMYCAALESLINVSGCSAIEKTQRMLSGFCPHKVSAGQFSSLHVKKTRIEVAQFVKDLLIHLRKLFKEGQFNHHHHHH
